Results taken from publication PMC4239663, “Structural basis for extracellular cis and trans RPTPσ signal competition in synaptogenesis” (Nature Communications, 2014).
Numbering of substitutions follows the chain as printed. Numbers in names are those of the source. Where “and” joins values, the source holds several entries; their conditions need not be identical. Equal entries are not always repeated. Blank lines part the entries; values can stand above or below the molecule they belong to.

Assays:
[1] = target: human RPTPσ Ig1–3 (human)
[2] = target: human RPTPσ Ig1–3 WT, C-terminal Avitag, immobilized (human); test: SPR; equilibrium; biotinylated human RPTPσ Ig1–3 (wild type or mutants) immobilized on streptavidin-coated CM5 chips, mouse TrkC LRRIg1 as analyte; 10 mM HEPES pH 7.5, 150 mM NaCl, 0.01% Tween 20, 25 °C
[3] = target: human RPTPσ Ig1–3 R227A+R228A (R228A+R229A in human numbering), C-terminal Avitag (human); test: as above
mouse TrkC LRRIg1 2Q = target: T1, mouse TrkC LRRIg1 2Q (Mus musculus); test: SPR
T1 chain: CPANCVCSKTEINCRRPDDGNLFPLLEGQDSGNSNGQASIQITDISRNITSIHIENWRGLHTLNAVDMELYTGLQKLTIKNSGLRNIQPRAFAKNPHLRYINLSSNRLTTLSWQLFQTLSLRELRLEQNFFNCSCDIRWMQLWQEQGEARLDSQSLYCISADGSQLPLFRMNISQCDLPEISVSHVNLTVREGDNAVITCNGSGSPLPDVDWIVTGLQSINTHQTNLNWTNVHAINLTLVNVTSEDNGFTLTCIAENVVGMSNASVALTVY

[4] = target: mouse TrkC LRRIg1, C-terminal Avitag, immobilized (mouse) (UniProt Q6VNS1); test: SPR; equilibrium; biotinylated mouse TrkC LRRIg1 (wild type or D240A+D242A) immobilized on streptavidin-coated CM5 chips, human RPTP proteins as analytes; 10 mM HEPES pH 7.5, 150 mM NaCl, 0.01% Tween 20, 25 °C; in Fig. 6a also with increasing HS or heparin-dp10
[5] = target: T2, mouse TrkC LRRIg1 (soluble) (mouse, UniProt Q6VNS1 32-302); test: SPR
T2 chain: T1 chain with Q37N, Q41N

chicken RPTPσ Ig1–3 = chicken RPTPσ Ig1–3 (chicken, UniProt F1NWE3 29-316); test: SPR; equilibrium; biotinylated chicken TrkC LRRIg1 variants immobilized on streptavidin-coated CM5 chips, chicken RPTPσ Ig1–3 as analyte; 10 mM HEPES pH 7.5, 150 mM NaCl, 0.01% Tween 20, 25 °C; 1 M MgCl2 regeneration for LRRIg1 2Q; settings: both partners purified
[6] = target: chicken TrkC LRRIg1 2N, C-terminal Avitag, immobilized (chicken, UniProt Q91044 32-302, N163Q | N232Q | N259Q | N267Q | N294Q, biotin on the Avitag (enzymatic)); test: SPR
mouse NGL-3 Ecto = target: T3, mouse NGL-3 Ecto (mouse, UniProt P0C192 39-574, biotin on the Avitag (enzymatic)); test: SPR
T3 chain: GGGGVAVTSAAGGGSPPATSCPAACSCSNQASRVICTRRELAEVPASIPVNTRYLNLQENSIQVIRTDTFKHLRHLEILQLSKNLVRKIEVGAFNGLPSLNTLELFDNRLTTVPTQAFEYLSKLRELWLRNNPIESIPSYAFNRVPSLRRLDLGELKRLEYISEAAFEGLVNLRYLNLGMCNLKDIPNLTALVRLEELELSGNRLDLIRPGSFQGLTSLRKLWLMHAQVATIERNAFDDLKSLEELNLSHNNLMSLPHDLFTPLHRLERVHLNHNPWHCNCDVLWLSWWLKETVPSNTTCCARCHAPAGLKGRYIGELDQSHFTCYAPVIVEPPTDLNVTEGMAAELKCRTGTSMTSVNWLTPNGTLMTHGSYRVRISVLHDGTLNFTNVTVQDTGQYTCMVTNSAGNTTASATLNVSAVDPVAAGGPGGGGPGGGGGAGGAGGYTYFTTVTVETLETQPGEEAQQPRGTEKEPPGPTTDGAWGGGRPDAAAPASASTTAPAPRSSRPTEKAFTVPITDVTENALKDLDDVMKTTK

[7] = target: T4, mouse TrkC LRRIg1, C-terminal Avitag, immobilized (mouse, UniProt Q6VNS1 32-302, biotin on the Avitag (enzymatic)); test: SPR
T4 chain: T1 chain with Q37N, Q41N

induced presynaptic differentiation in rat hippocampal neurons co-cultured with COS-7 cells expressing mouse TrkC TM, with heparin-dp10 (30 μg/ml, ~10 μM) against mock [1]: 2 fold
Molecule: mouse TrkC LRRIg1, C-terminal Avitag, immobilized (from UniProt Q6VNS1 32-302) (domain or fragment)

Kd [2]: 1800 nM
Kd [3]: 7000 nM
Molecule: mouse TrkC LRRIg1 (soluble) (from UniProt Q6VNS1 32-302) (domain or fragment)

Kd (mouse TrkC LRRIg1 2Q): 140 nM
Kd [4]: 258 nM
B1: human RPTPσ Ig1–3 (domain or fragment)
chain: EEPPRFIKEPKDQIGVSGGVASFVCQATGDPKPRVTWNKKGKKVNSQRFETIEFDESAGAVLRIQPLRTPRDENVYECVAQNSVGEITVHAKLTVLREDQLPSGFPNIDMGPQLKVVERTRTATMLCAASGNPDPEITWFKDFLPVDPSASNGRIKQLRSGALQIESSEETDQGKYECVATNSAGVRYSSPANLYVRVRRVAPRFSILPMSHEIMPGGNVNITCVAVGSPMPYVKWMQGAEDLTPEDDMPVGRNVLELTDVKDSANYTCVAMSSLGVIEAVAQITVKSLPKA

Kd [5]: 580 nM and 551 nM
B2: human RPTPσ Ig1–3 WT, C-terminal Avitag, immobilized (domain or fragment)
chain: B1 chain
modifications: biotin on the Avitag (enzymatic)

Kd [5]: 2800 nM
B3: human RPTPσ Ig1–3 ΔK (K68A+K69A+K71A+K72A) (domain or fragment)
chain: B1 chain with K39A, K40A, K42A, K43A

Kd (chicken RPTPσ Ig1–3): 4800 nM
B4: chicken TrkC LRRIg1cryst, C-terminal Avitag, immobilized (domain or fragment, UniProt Q91044 32-302, looked up)
chain: CPANCLCSKTDINCKKPDDGNLFPLLEGQDSRNITSIHIENWKNLQTLNAVDMELYTGLQRLTIRNSGLRNIQPRAFAKNPHLRYIDLSGNRLTTLSWQLFQTLRLFDLRLERNPFQCSCDIRWIQLWQEKGEANLQSQQLHCMNLDTAVILLRNMNITQCDLPEISVSHVNLTVREGENAVITCQGSGSPLPDVDWTVADLHSINTHQTNLQWTNVHAIQLTLVNVTSEDNGFLLTCIAENVVGMSQASVLLTVY
modifications: biotin on the Avitag (enzymatic)
notes: chicken TrkC LRRIg1, amino acids 32–302 of NCBI NM_205169.1, lacking residues 63–77; not shown: Avitag (BirA recognition site), C-terminal, kept

Kd [6]: 2600 nM
B5: chicken RPTPσ Ig1-3 ΔK (protein)
chain: ESPPVFIKKPVDQIGVSGGVASFVCQATGDPKPRVTWNAAGAAVNSQRFETIEFDESAGAVLRIQPLRTPRDENIYECVAQNPHGEVTVHAKLTVLREDQLPPGFPNIDMGPQLKVVERTRTATMLCAASGNPDPEITWFKDFLPVDPSTSNGRIKQLRSGGLQIESSEETDQGKYECVASNSAGVRYSSPANLYVRVRRVAPRFSILPVSHEIMPGGNVNITCVAVGSPMPYVKWMQGAEDLTPEDDMPVGRNVLELTDVKDSANYTCVAMSSLGVIEAVAQITVKS

Kd [6]: 2500 nM
B6: chicken RPTPσ Ig1–3, C-terminal Avitag, immobilized (domain or fragment)
chain: ESPPVFIKKPVDQIGVSGGVASFVCQATGDPKPRVTWNKKGKKVNSQRFETIEFDESAGAVLRIQPLRTPRDENIYECVAQNPHGEVTVHAKLTVLREDQLPPGFPNIDMGPQLKVVERTRTATMLCAASGNPDPEITWFKDFLPVDPSTSNGRIKQLRSGGLQIESSEETDQGKYECVASNSAGVRYSSPANLYVRELREVRRVAPRFSILPVSHEIMPGGNVNITCVAVGSPMPYVKWMQGAEDLTPEDDMPVGRNVLELTDVKDSANYTCVAMSSLGVIEAVAQI
modifications: biotin on the Avitag (enzymatic)

Kd [5]: 4800 nM
B7: RPTPσ with the meB mini-exon inserted between R225 and V226 (domain or fragment)
chain: EEPPRFIKEPKDQIGVSGGVASFVCQATGDPKPRVTWNKKGKKVNSQRFETIEFDESAGAVLRIQPLRTPRDENVYECVAQNSVGEITVHAKLTVLREDQLPSGFPNIDMGPQLKVVERTRTATMLCAASGNPDPEITWFKDFLPVDPSASNGRIKQLRSGALQIESSEETDQGKYECVATNSAGVRYSSPANLYVRELREVRRVAPRFSILPMSHEIMPGGNVNITCVAVGSPMPYVKWMQGAEDLTPEDDMPVGRNVLELTDVKDSANYTCVAMSSLGVIEAVAQITVKSLPKA

Kd (chicken RPTPσ Ig1–3): 216 nM
B8: chicken TrkC LRRIg1 2N, C-terminal Avitag, immobilized (domain or fragment, UniProt Q91044 32-302, looked up)
chain: CPANCLCSKTDINCKKPDDGNLFPLLEGQDSGSSNGNTSINITDISRNITSIHIENWKNLQTLNAVDMELYTGLQRLTIRNSGLRNIQPRAFAKNPHLRYIDLSGNRLTTLSWQLFQTLRLFDLRLERNPFQCSCDIRWIQLWQEKGEANLQSQQLHCMNLDTAVILLRNMNITQCDLPEISVSHVNLTVREGENAVITCQGSGSPLPDVDWTVADLHSINTHQTNLQWTNVHAIQLTLVNVTSEDNGFLLTCIAENVVGMSQASVLLTVY
modifications: biotin on the Avitag (enzymatic)
notes: chicken TrkC LRRIg1, amino acids 32–302 of NCBI NM_205169.1, residues 63–77 re-added to LRRIg1cryst; not shown: Avitag (BirA recognition site), C-terminal, kept

Kd (chicken RPTPσ Ig1–3): 38 nM
B9: chicken TrkC LRRIg1 2Q, C-terminal Avitag, immobilized (domain or fragment, UniProt Q91044 32-302, looked up)
chain: B8 chain with N37Q, N41Q
modifications: biotin on the Avitag (enzymatic)
notes: chicken TrkC LRRIg1, amino acids 32–302 of NCBI NM_205169.1, residues 63–77 re-added with N68Q+N72Q; not shown: Avitag (BirA recognition site), C-terminal, kept

Kd (mouse NGL-3 Ecto): > 7300 nM
Kd [7]: 1500 nM
Kd [4]: 516 nM
B10: human RPTPσ Ecto (domain or fragment)
chain: EEPPRFIKEPKDQIGVSGGVASFVCQATGDPKPRVTWNKKGKKVNSQRFETIEFDESAGAVLRIQPLRTPRDENVYECVAQNSVGEITVHAKLTVLREDQLPSGFPNIDMGPQLKVVERTRTATMLCAASGNPDPEITWFKDFLPVDPSASNGRIKQLRSGALQIESSEETDQGKYECVATNSAGVRYSSPANLYVRVRRVAPRFSILPMSHEIMPGGNVNITCVAVGSPMPYVKWMQGAEDLTPEDDMPVGRNVLELTDVKDSANYTCVAMSSLGVIEAVAQITVKSLPKAPGTPMVTENTATSITITWDSGNPDPVSYYVIEYKSKSQDGPYQIKEDITTTRYSIGGLSPNSEYEIWVSAVNSIGQGPPSESVVTRTGEQAPASAPRNVQARMLSATTMIVQWEEPVEPNGLIRGYRVYYTMEPEHPVGNWQKHNVDDSLLTTVGSLLEDETYTVRVLAFTSVGDGPLSDPIQVKTQQGVPGQPMNLRAEARSETSITLSWSPPRQESIIKYELLFREGDHGREVGRTFDPTTSYVVEDLKPNTEYAFRLAARSPQGLGAFTPVVRQRTLQSISPKNFKVKMIMKTSVLLSWEFPDNYNSPTPYKIQYNGLTLDVDGRTTKKLITHLKPHTFYNFVLTNRGSSLGGLQQTVTAWTAFNLLNGKPSVAPKPDADGFIMVYLPDGQSPVPVQSYFIVMVPLRKSRGGQFLTPLGSPEDMDLEELIQDISRLQRRSLRHSRQLEVPRPYIAARFSVLPPTFHPGDQKQYGGFDNRGLEPGHRYVLFVLAVLQKSEPTFAASPFSDPFQLDNPDPQPIVDGEEG
